Laboratory results from the nanobody polyreactivity screen of Harvey et al. (2022).

test: yeast display, Sf9 membrane polyspecificity reagent, FACS + sequencing; frameworks hold sequencing errors
In short: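 Polyreactivity labels are assigned by the sorting gate from which each nanobody was recovered. The gates were low and high (top ~1%), set on anti-HA fluorescence for expression and streptavidin fluorescence for reagent binding. Before sorting, galactose-induced (36–48 hours) yeast display cells were stained for 1 hour at 4 °C with 10% biotinylated, detergent-solubilized Sf9 membrane reagent.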

Sequence | polyreactivity (PSR sort gate)
QVQLVETGGGLVQAGGSLRLSCAASGRISQNAMGWYRQAPGKERELVAAITFSGGSTYYADSVKGRFTISRDNAKNTVYIQMNSLKAEDTAVYYCNVRQYTDGMKYDYWGQGTQVTVSA | low polyreactivity
QVQLVETGGGLVQAGGSLRLSCAASGRISYDYAMGWYRPPPGKERELVAAITTGGNTYYADSVKGRFTISRDNAKNTVYLQLNRLKPEDTAVYYCSVRGPYVRYNRYNYVYWGQGTQVTVSS | low polyreactivity
QVQLVETGGGLVQAGGSLRLSCAASGRIYYVYDMGWYRQAPGKERELVAAISWSGGSTSYADSVKGRFTISRDNAKYTVYLQMNSLKPDDTAVYYCAATSAIGWGYDYWGQGTQVTVSS | low polyreactivity
QVQLVETGGGLVQAGGSLRLSCAASGRNFNWNTMGWYRQAPRKEREFDAAISGSGGSTYYADSVKGRFTISRDNAKNTVYLQMISLKPEDTAVYYCAKRLYYSYYDEMDYWGQGTQVTVSS | high polyreactivity
QVQLVETGGGLVQAGGSLRLSCAASGRTFDGNVMGWYRQEPGKERELGAAISDRGTRTYYADSVKGRFTISRDNAKNTVYLQMNSLKPEDTAVYYCATRVYFSPYRYDYWGQGTQGTVSS | high polyreactivity
QVQLVETGGGLVQAGGSLRLSCAASGRTFRAYAMGWYRQAPGKEMELVAAITSGGSTKYADSVNGRFTISRDNAKNTVYLQMTRLKPEDTAVYYCAATLALESYIYDYWGQGTQVTVSS | high polyreactivity
QVQLVETGGGLVQAGGSLRLSCAASGRTFRYNAMGWYRQAPGKERELVAAITGSGGSTYYADSVKGRFTISRDNAKNTVYLQMNSLKPEDTAVYYCARAYSYRLYPYGSWGQGTQVTVSS | high polyreactivity
QVQLVETGGGLVQAGGSLRLSCAASGRTFWYYAMGWYRQAPVTERELVAYADSVKGRFTISRDNAKNTVYLQMNSLKPEDTAVYYCAVGPVVWFSSSLYYTDYYYWGQGTEVTVSS | low polyreactivity
QVQLVETGGGLVQAGGSLRLSCAASGRTFYGNAMGWYRQAPGKEREFVAAIRGSGGSTYYADSVKGRFTISRDNAKNTVYLQMNSLKPEDTAVSYCNRGWAYGSAYYAKYYYWGQGTQVTVSS | high polyreactivity
QVQLVETGGGLVQAGGSLRLSCAASGRTYAFYAMGWYRQAPGKERELVASISSSGDRPYYADSVKGRFTISRDNAKNTVFLQLNSLKPEDTAVYYCAARWRYTYYYWGQGTQVTVSS | high polyreactivity
QVQLVETGGGLVQAGGSLRLSCAASGSIFEYNAMGWYRQAPGKERELVAAISWSSGTTYYADSVKGRFTISRDNAKNSVYLQMNSLKPEDNAVYYCNAGRYGKDSVYWGQVTQVTVSS | low polyreactivity
QVQLVETGGGLVQAGGSLRLSCAASGSIFGAYAMGWYRQAPGKERELVAAITWTAGSTFYADSVKGRFTISRDNAKNTVYLQMNSLKPEDTAVYYCAAEYYTETQWSRYYRYYYWGQGTQVTVSS | low polyreactivity
QVQLVETGGGLVQAGGSLRLSCAASGSIFLKYAMGWYRQAPGKERELVAAISWSGGRTYYADSVKGRFTISRDNAKNTVYLQMNSLIPEDTAVYYCAAAGRVNNGYRGYGYWGQGTQVTVSS | high polyreactivity
QVQLVETGGGLVQAGGSLRLSCAASGSIFPSYAMGWYRPAPAKERELVAAISRSAGSTYYADSVKGRFTISRDNSKNTVYLQMNSLKPEDTAVYYCADDGYSSRYRYDYWGQGTQVTVSS | low polyreactivity
QVQLVETGGGLVQAGGSLRLSCAASGSIFSIYAMGWYRQAPGKERELVAAISWSGGSTYYADSVKGRFTISRDNAKNTVYLQMNSLKPEDTAVYYCLRQDYHYHPYDYWGQGTQVTVSS | low polyreactivity
QVQLVETGGGLVQAGGSLRLSCAASGSIFTYYAMGWSRQAPGKERELVAAITSGGSTYYADSVKGRFTISRDNAKNTVYLQMNSLKPEDTAVYYCNAVTFYRYYTGKYDYWGQGTQVTVSS | high polyreactivity
QVQLVETGGGLVQAGGSLRLSCAASGSIFVLYAMGWYRQAPGKEREFVAAISSSGGSTYADSVKGRFTISRDNAKNTVYLQMNSLKPEDTAVYYCARDVYLSDPPRDYDYWGQGTQVTVSS | low polyreactivity
QVQLVETGGGLVQAGGSLRLSCAASGSIFVRNAMGWYRQAPGKERELVAAINRDGGRTYYADSVKGRFTISRDNAKNTVYLQMNSLKPEDTAVYYCNAGGVSFEYGYWGQGTQVTVSS | high polyreactivity
QVQLVETGGGLVQAGGSLRLSCAASGSIFYGYAMGWYSQSHGQEREFVAAITFSATSTYYADSVKGRFTISRDNAKNPVYLQMNSLKPEDTAVYYCAAVIGDWQYQYYYWGQGTLVTVSS | low polyreactivity
QVQLVETGGGLVQAGGSLRLSCAASGSILYYKPMGWYRQAPGKERELVASISLTGGSTTYADSVKGRFTISRDNAKNTVYLQMNSLKPEDTAVYYCNATQYPAADRSTNNYGGGFDSWGQGTQVTVSS | low polyreactivity
QVQLVETGGGLVQAGGSLRLSCAASGSISGFIDMGWYRQAPGKERELVAAISYSGGRTYYADSVKGLFTISRDNAKNTVFLQMNSLKPEDTAVYYCAADKFIYSKYTVIRDDYWGQGTQVTVSS | high polyreactivity
QVQLVETGGGLVQAGGSLRLSCAASGSTFSRNAMGWYRQAPGKEREFVAAISWSGSSTYYADSVKGRFTISRDNEKNTVYLQMNSLKPEDTAVYYCAARETWYPYYWMGYWGQGAQVTVSS | high polyreactivity

Sequence | polyreactivity (PSR sort gate)
QVQLVETGGGLVQAGGSLRLSCAASGSTFWRNSMGWYRHAPGKEREFVASISWSGGGTYYADSVKGRFTISRDNAKNTVYLQMNILKPEDTAVYYCAATPYWSYWYGNGDYDYWGQGTQVTVSS | low polyreactivity
QVQLVETGGGLVQAGGSLRLSCAASGSTFYNYAMGWYRQAPGKEREFVAAISWGGGSTRYADSVKGRFTISRDYAKNTVYLQMNSLKPEDTAVYYCAARYPHYDYYYWGQGTQVTVSS | high polyreactivity
QVQLVETGGGLVQAGGSLRLSCAASRSIFLYYAMGWYRQAPGKERELVAAISYSGSGTYADSVKGRFTISRDNAKNTVYLEMNSLKPEDTAVYYCNVDYGSYSYDYWGQGTQVTVSS | low polyreactivity
QVQLVETGGGLVQAGGSLRLSCADSGSICEQYTMGWYRQAPGKERELVAGSSSGGITNYADSVKGRFTISRDNAKNTVYLQMNSLKPEDTAVYYCAADNWYLAEYDYWGEGTQVTVSS | low polyreactivity
QVQLVETGGGLVQAGGSLRLSCAPSGLSIGYYAMGWYRQAPGKEREFVAAITWNGGSTYADSVKGLFTISRDNAKNTVYLQMNSLKPEDTAVYYCAADLSYWDDFDYWGQGTQVTVSS | low polyreactivity
QVQLVETGGGLVQAGGSLRLSCAPSGRIFTYYGMGWYRQPPGKERELVAAITRSGGSTRYADSVKGRFTISRDNAKNTVYLQMNSLKPEDTAVYYCNAGGYWRYDYWGQGTQVTVSS | high polyreactivity
QVQLVETGGGLVQAGGSLRLSCAPSGRILYGYAMGWYRQAPGKERELVASITWSGGSTYADSVKGRFTISRDNAKNTVYLQMNSLKPEDTAVYFCATRRGPKWQWLTYGYWGQGTQVTVSS | low polyreactivity
QVQLVETGGGLVQAGGSLRLSCAPSGSIYYINAMGWYRQAPGKERELVAAIRSGGSTNYADSVKGLFTISRDNAKNTVYLQMNSLKPEDTAVYYCNARSRSYVPYYYWGQGTQVTVSS | high polyreactivity
QVQLVETGGGLVQAGGSLRLSSAASGFIFGTYTMGWYRQAPGKERELVAAISTSSGSTYYADSVKGRFTISRDNAKNTVYLQMNSLKPEDTAVYYCAAPTRSYGTPPYDYWGQGTQVTVSS | low polyreactivity
QVQLVETGGGLVQAGGSLRLSSAASGSTFAWYAMGWYRQAPGKEREFVAAIDQDDDSTYYADSVKGRFTISRDNAKNTVYLQMKSLKPEDTAVYYCAASSPWEQSNDQFYYWGQGTQVTVSS | low polyreactivity
QVQLVETGGGLVQAGGSLRVSCAASGRTFVGNAMGWYRQPPGKERELVAAISYSGDDTYYADSVKGRFTISRDNAKNTVYLQMNSLKPVDTAVYYCAAEWTAENAGIVLELEYWGQGTQVTVSS | high polyreactivity
QVQLVETGGGLVQAGGTLRLSCAASGRIFLTNAMGWYRQAPGKERELVATITASGGTTYYADSVKGRFTISRDNAKITVYLQMNSLKPDDTAVYYCAKRYYLRGFGRYYYCGQGTQVTVSS | high polyreactivity
QVQLVETGGGLVQARGSLRLSCAASGRTFYKYAMGWYIQAPGKERELVAAISSDGTTYYADSVKGRFTISRDNAKNTVYLQMNRLKPVDTAVYYFAADPPPPFLYVSVQEYDYWGQGTQVTVSS | low polyreactivity
QVQLVETGGGLVQARGSLRLSSAASGFIFDENAMGWYRQAPGKERELVAAITSGGGSTYYADSVKGRFTISRDNAKNTVYFQMNSQNPEDTAVYYCNAVPTQHDEFDYWGQGTQVTVSS | low polyreactivity
QVQLVETGGRLVQAGGSLRVSCAASGITFECYAMGWSRQATGKERELVAAIRSSGTSTYYADSVKGRFTISRDNAKNTVYLQMMSLKPEDTAVYYCNLARSSSRYDYWGQGTQVTVSS | low polyreactivity
QVQLVETGPGLVQAGGSLRLSCAASGSIFGTYAMGWYRQAPGKERELVAAITGNGGRTYYADSVKGRFTISRDNAKNTVFLQMNSLKPEDTAVYYCAKATSRRGFYDWGPGTQVTVSS | high polyreactivity
QVQLVETGVGLVQAGGSLRLSCAASGRIFLVYAMGWYRQAPGKERELVAAISWRGGRTYYADSVKGRFTISRDNAKNTVYLQMNSLIPEDTAVYYCAAASKYSQFEYDYWGQGTQVTVSS | high polyreactivity
QVQLVETGVGLVQAGGSLRLSCAASGSTFPGYAMGWYRQAPGKERELVAAISASGGSTYYADSVKGRFTISRDIAKNTVYLQMNSLKPEDTEVYYCAKVLSRGASAHDYWGLGTQVTVSS | low polyreactivity
QVQLVETRGGLVQAGGSLRLSCAASGSIFLQNAMGWYRQAPGKERELVAAITNGGSTNYADSVKGRFTISRDNAKNTVYLQMNSLKPEDTAVYYCAAYPLYTGSYDRGGYWGQGTQVTVSS | low polyreactivity
QVQLVETVGGLDQAGGSLLLSCAASGRIFWENALGWYRQAPGKERELVAAISDSVVITYYADSVKGRFTISRDNAKNTVYLQMNSLKPEDTAVYDCAADKRGSVYLSSFWMDYWGQGTQVTVSS | low polyreactivity
QVQLVEYGGGLVQAGGSLRLSCAASGRIFGYYTMGWYRQAPRKERELVAAITSSGGRTYYADSVKGRFTISRDNAKNTVYLQMNSLKPEDTAVYYCNKVTFGYAYWRYDGYDYWGQGTQVTVSS | low polyreactivity
